Data from PMC12657763, “SH2-mediated steric occlusion of the C2 domain regulates autoinhibition of SHIP1 inositol 5-phosphatase” (The Journal of Biological Chemistry, 2025).
Values belong to the molecule of their own block, whether it stands above or below them. Where no end group is shown, it is not given here. [ ]: non-standard residue; d: D form. pY = N[C@@H](Cc1ccc(OP(=O)(O)O)cc1)C(=O)O

B1: mNG-SHIP1(RBD) (domain or fragment, human, UniProt Q92835-2 151-290, looked up)
chain: ATETSRPSLSETLFQRLQSMDTSGLPEEHLKAIQDYLSTQLAQDSEFVKTGSSSLPHLKKLTTLLCKELYGEVIRTLPSLESLQRLFDQQLSPGLRPRPQVPGEANPINMVSKLSQLTSLLSSIEDKVKALLHEGPESPH
notes: the clone is UniProt Q92835 isoform 2, missing V117; A GGGGG linker stands between mNG and SHIP1; 42.7 kDa for the monomeric species; also called SHIP1(RBD) fused to an mNeonGreen (mNG); his10-mNG-GGGGG-SHIP1 (RBD, 151–290 amino acids); source: E. coli BL21 (DE3) Star, purified (HiTrap chelating column with CoCl2, TEV cleavage, Superdex 200); not shown: His10, N-terminal, cleaved; mNeonGreen, …
B2: pY-ITIM peptide CKTEAENTIT(pY)SLIK, conjugated to the supported membrane (peptide)
peptide: C(MCC‑PE lipid)KTEAENTIT[pY]SLIK
notes: cysteine added to the N terminus for coupling to the maleimide lipid; also called membrane-conjugated pY-ITIM peptides; pY-conjugated peptide; source: synthetic peptide (Elim Biopharmaceuticals), covalently coupled to MCC-PE lipids of the supported membrane
B3: mNG-SHIP1(FL) (enzyme, human, UniProt Q92835-2 1-1188, looked up)
chain: MVPCWNHGNITRSKAEELLSRTGKDGSFLVRASESISRAYALCVLYRNCVYTYRILPNEDDKFTVQASEGVSMRFFTKLDQLIEFYKKENMGLVTHLQYPVPLEEEDTGDDPEEDTESVVSPPELPPRNIPLTASSCEAKEVPFSNENPRATETSRPSLSETLFQRLQSMDTSGLPEEHLKAIQDYLSTQLAQDSEFVKTGSSSLPHLKKLTTLLCKELYGEVIRTLPSLESLQRLFDQQLSPGLRPRPQVPGEANPINMVSKLSQLTSLLSSIEDKVKALLHEGPESPHRPSLIPPVTFEVKAESLGIPQKMQLKVDVESGKLIIKKSKDGSEDKFYSHKKILQLIKSQKFLNKLVILVETEKEKILRKEYVFADSKKREGFCQLLQQMKNKHSEQPEPDMITIFIGTWNMGNAPPPKKITSWFLSKGQGKTRDDSADYIPHDIYVIGTQEDPLSEKEWLEILKHSLQEITSVTFKTVAIHTLWNIRIVVLAKPEHENRISHICTDNVKTGIANTLGNKGAVGVSFMFNGTSLGFVNSHLTSGSEKKLRRNQNYMNILRFLALGDKKLSPFNITHRFTHLFWFGDLNYRVDLPTWEAETIIQKIKQQQYADLLSHDQLLTERREQKVFLHFEEEEITFAPTYRFERLTRDKYAYTKQKATGMKYNLPSWCDRVLWKSYPLVHVVCQSYGSTSDIMTSDHSPVFATFEAGVTSQFVSKNGPGTVDSQGQIEFLRCYATLKTKSQTKFYLEFHSSCLESFVKSQEGENEEGSEGELVVKFGETLPKLKPIISDPEYLLDQHILISIKSSDSDESYGEGCIALRLEATETQLPIYTPLTHHGELTGHFQGEIKLQTSQGKTREKLYDFVKTERDESSGPKTLKSLTSHDPMKQWEVTSRAPPCSGSSITEIINPNYMGVGPFGPPMPLHVKQTLSPDQQPTAWSYDQPPKDSPLGPCRGESPPTPPGQPPISPKKFLPSTANRGLPPRTQESRPSDLGKNAGDTLPQEDLPLTKPEMFENPLYGSLSSFPKPAPRKDQESPKMPRKEPPPCPEPGILSPSIVLTKAQEADRGEGPGKQVPAPRLRSFTCSSSAEGRAAGGDKSQGKPKTPVSSQAPVPAKRPIKPSRSEINQQTPPTPTPRPPLPVKSPAVLHLQHSKGRDYRDNTELPHHGKHRPEEGPPGPLGRTAMQ

What was measured:
[1] = molecular target: mNG-SHIP1(ΔCTD) (human); test: single-molecule photobleaching (TIRF-M); mNG-tagged SHIP1 bound to supported lipid bilayers with conjugated pY peptides (2% PI(3,4,5)P3, 2% MCC-PE, 96% DOPC); steps of photobleaching counted
[2] = molecular target: pY-ITIM peptide …(pY)SLIK, conjugated to the supported membrane; test: single-molecule TIRF-M dwell time on supported lipid bilayers; pY-ITIM peptide conjugated to the membrane (2% PI(3,4,5)P3, 2% MCC-PE, 96% DOPC); 20–50 pM mNG-SHIP1 in solution; 23 °C; single or double exponential fit of dwell times
[3] = molecular target: mNG-SHIP1(ΔCTD) (human); test: single-molecule brightness distribution (TIRF-M); mNG-SHIP1 bound to pY peptides on supported lipid bilayers; 50 pM mNG-SHIP1(FL), 50 pM mNG-SHIP1(ΔCTD) or 20 pM mNG-mSHIP1(ΔCTD); particle brightness in the second frame of each trajectory
[4] = molecular target: the molecule itself; test: SEC; purified mNG-SHIP1(RBD) on a size-exclusion chromatography column, multiple protein concentrations
[5] = molecular target: B3; test: TIRF-M membrane recruitment (bulk mNG fluorescence on supported lipid bilayers); pY-ITIM peptide conjugated to the membrane (2% PI(3,4,5)P3, 2% MCC-PE, 96% DOPC); 100 pM mNG-SHIP1 in solution; membrane density normalized to mNG-SHIP1(FL); conditions: both partners purified
[6] = molecular target: the molecule itself; test: single-molecule photobleaching (TIRF-M); mNG-tagged SHIP1 bound to supported lipid bilayers with conjugated pY peptides (2% PI(3,4,5)P3, 2% MCC-PE, 96% DOPC); steps of photobleaching counted

stoichiometry N [1]: 2
membrane dwell time τ1 [2]: 0.359 s
membrane dwell time τ1 (dimers only) [2]: 1.79 s
membrane dwell time τ2 [2]: 1.83 s
estimated fraction existing as dimers (corrected for mNG maturation) [3]: 26%
fraction of legitimate dimers with two mNG visible [3]: 13%
Molecule: mNG-SHIP1(ΔCTD) (domain or fragment)

membrane dwell time τ1 [2]: 0.409 s
Molecule: mNG-mSHIP1(ΔCTD) (domain or fragment)

Molecule: B1
stoichiometry N [4]: 2

Molecule: B2
binding result [5]: binds

Molecule: B3
stoichiometry N [6]: 2
